Laboratory results as given in patent US20110123447A1 (UNIVERSITY OF ZURICH, published 2011).
“And” between values parts separate entries of the source, which are not always exact repeats. Equal entries are not always repeated.

Experiments:
[1] = molecular target: T1, full length recombinant NY-ESO-1 protein (human, UniProt P78358 1-180); assay: ELISA on coated recombinant NY-ESO-1, supernatant of transfected 293 HEK cells
T1 construct: mature; The form was set to 'mature' to stand for full length

[2] = molecular target: T2, NY-ESO-1 as expressed in NY-ESO-1-positive mamma carcinoma tissue sections and in the cell line SK-MEL-37 (human, UniProt P78358 1-180); assay: immunohistochemistry on NY-ESO-1-positive tissue sections
T2 construct: whole, on cells; The antigen is intracellular; It was detected in fixed sections or permeabilised cells, not on the cell surface; also called NY-ESO-1-positive tissue; NY-ESO-1-positive cell line SK-MEL-37
Method: Immunohistochemistry was performed on formalin-fixed, paraffin-embedded tissue. Heat-based antigen retrieval was applied to all slides. Non-specific fluorescence was blocked using polyclonal rabbit anti-human IgG (Dako, Baar, Switzerland) for 30 min at room temperature followed by a second block in 1% of low fat milk (Rapilait, Migros, Switzerland) for 10 min. Primary antibody or B cell conditioned medium was incubated overnight at 4° C. […] As positive control for the presence of NY-ESO-1 antigen a mouse anti-NY-ESO-1 monoclonal antibody (Zymed, South San Francisco, USA) was used.

NY-ESO-1 11-30 peptide [3] = molecular target: T3, NY-ESO-1 11-30 peptide (human); assay: competition ELISA: soluble NY-ESO-1 11-30 peptide against plate bound peptide
T3 construct: also called peptide spanning amino acids 11 to 30 of NY-ESO-1
T3 peptide: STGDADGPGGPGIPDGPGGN
Method: The avidity of Manhattan was determined by competition ELISA using increasing concentrations of soluble NY-ESO-1₁₁₋₃₀ peptide to compete for the plate bound peptide. As depicted in FIG. 3C, the antigen-binding equilibrium dissociation constant (KD) of the interaction of Manhattan with its cognate peptide was in the lower nanomolar range.

[4] = molecular target: T4, NY-ESO-1 peptide spanning amino acids 1-20 (human, UniProt P78358 1-20); assay: epitope mapping ELISA on coated overlapping peptides
T4 construct: range 1-20; also called adjacent peptide 1-20
T4 peptide (looked up): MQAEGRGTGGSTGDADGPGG
Method: (§1) 20mer peptides spanning the entire NY-ESO-1 protein with 10 aa overlaps shared by each adjacent peptides (Peptides&Elephants, Nuthetal, Germany) were used to coat Maxisorp ELISA plates (Nunc, Rochester, N.Y.). Human recombinant antibody Manhattan or patient serum (diluted 1:500 in PBS) was detected using horseradish peroxidase-conjugated Goat anti-human IgG+IgM (Jackson ImmunoResearch).
(§2) To identify the epitope recognized by Manhattan on NY-ESO-1 ELISA was performed using overlapping peptides spanning the complete NY-ESO-1 protein. […] This epitope, among others was also recognized by antibodies contained in serum of patient C1 (FIG. 3B).

[5] = molecular target: T5, NY-ESO-1 peptide spanning amino acids 21-40 (human, UniProt P78358 21-40); assay: as above
T5 construct: range 21-40; also called adjacent peptide 21-40
T5 peptide (looked up): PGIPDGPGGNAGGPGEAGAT
Method: as §1, §2

NY-ESO-1 11-30 peptide [6] = molecular target: T3, NY-ESO-1 11-30 peptide; assay: saturation ELISA on coated NY-ESO-1 11-30 peptide

B1: human monoclonal antibody Manhattan (recombinant human antibody 12D7 clone No. 4) (antibody, human IgG1, V domains shown)
VH: QVQLVQSGGGVVRPGGSLRLSCAASGFSFIDYGMSWVRQVPGKGLEWVAGMNWSGDKKGHAESVKGRFIISRDNAKNTLYLEMSSLRVEDTALYFCARGEYSNRFDPRGRGTLVTVSS
VL: DIVMTQTPLSLPVTLGQPASLSCRSSQSLVFTDGNTYLNWFQQRPGQSPRRLIYKVSSRDPGVPDRFSGTGSGTDFTLEISRVEAEDIGVYYCMQGTHWPPIFGQGTKVEIK
notes: They were cloned into vectors with the constant regions of human IgG1 heavy chain and human kappa light chain and expressed in 293 HEK cells; also called 12D7 clone number 4; 12D7.4
binding result [1]: binds
binding result [2]: binds
Kd (NY-ESO-1 11-30 peptide [3]): 0.1 nM
binding result [4]: no binding
binding result [5]: no binding
EC50 (NY-ESO-1 11-30 peptide [6]): 1 nM and 0.15 µg/mL
